Measured values reported in publication PMC3338619, “Ligand Binding Study of Human PEBP1/RKIP: Interaction with Nucleotides and Raf-1 Peptides Evidenced by NMR and Mass Spectrometry” (PLoS ONE, 2012).
Square brackets hold non-standard residues; d marks the D form. Ends that are not written are not given here. pY = N[C@@H](Cc1ccc(OP(=O)(O)O)cc1)C(=O)O; pS = N[C@@H](COP(=O)(O)O)C(=O)O

Assays:
[1] = molecular target: T1, Human Phosphatidylethanolamine binding protein 1 (hPEBP1) (human, UniProt P30086 1-187); assay: native MS; hPEBP1 incubated with a range of peptide concentrations, bound protein fraction measured by ESI-MS; ammonium bicarbonate (ABC), pH 7.4, 25°C; settings: both partners purified
T1 construct: the NMR assignment counts 187 residues in all, from Met1 to Lys187; The NMR samples were uniformly 15N-labelled; also called RKIP; source: E. coli BL21 (DE3), pET31b, purified (anion exchange, cation exchange); 15N-labelled for NMR, non-labelled recombinant for mass spectrometry
T1 sequence (P30086 whole entry): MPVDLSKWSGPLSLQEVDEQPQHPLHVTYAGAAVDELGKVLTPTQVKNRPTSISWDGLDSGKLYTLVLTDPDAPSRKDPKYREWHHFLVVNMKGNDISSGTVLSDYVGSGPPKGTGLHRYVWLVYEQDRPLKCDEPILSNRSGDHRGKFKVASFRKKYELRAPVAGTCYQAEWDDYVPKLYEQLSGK

[2] = molecular target: T1, Human Phosphatidylethanolamine binding …; assay: native MS; hPEBP1 incubated with a range of peptide concentrations, bound protein fraction measured by ESI-MS; ammonium acetate 20 mM, pH 6.6, 20°C; settings: both partners purified

B1: tri-phosphorylated Raf-1 peptide (residues 331-349) (peptide)
peptide: RPRGQRD[pS][pS]Y[pY]WEIEASEV
notes: Raf-1 N-region, residues 331-349; three phospho-amino acids at Ser338, Ser339 and Tyr341; also called 3P; Raf-1 peptide; Raf-1 peptide in tri-phosphorylated form; source: synthetic peptide (solid-phase, Fmoc strategy)
Question: Which Kd [1] does the source give for B1 here?
Answer: 11 ± 3 µM

Question: And the Kd [2]?
Answer: 45 ± 12 µM
